For experiment [1], the target named is T1, RSV/B/B9320 pre-fusion F protein (respiratory syncytial virus RSV/B/B9320).
T1 construct: also called pre-F of RSV type B; recombinant DS-Cav1
Briefly: BLI (Octet RED96), antibody captured on AHC sensor; reference MEDI8897. Background: BLI is a label-free optical method that tracks binding on a fibre tip over time.

Experiment [2] concerns the target T2, RSV/A/A2 pre-fusion F protein (respiratory syncytial virus RSV/A/A2, UniProt P03420 26-109).
T2 construct: also called RSV A2 pre-fusion F protein; pre-F of RSV type A
The experiment is described as above.

Experiment [3] concerns the target RSV/A/A2 fusion protein F on the virus (respiratory syncytial virus RSV/A/A2, UniProt P03420 26-574). Briefly: cell-based or functional assay.
In experiment [4] the target is T1, RSV/B/B9320 pre-fusion F protein. Put plainly: BLI (Octet RED96), antibody captured on AHC sensor; reference Palivizumab.
The target in experiment [5] is T2, RSV/A/A2 pre-fusion F protein. Described as above.

B1: 4F1En1 (VH-S75R) (antibody, V domains shown)
VH: QVQLVESGGGVVQPGRSLRLSCAASGFSFYSYSVHWVRQAPGKGLEWVADVVYDGNHQHYTDSVKGRFTISRDTRKNTVYLQMGSLRAEDTALYYCTARSLVITLAGAGRDDYWGQGTTVTVSS
VL: DIVMTQSPLSLPVTPGEPASISCRSSQSLLHSNGYTYLDWYLQKPGQSPQLLIFLGSSRASGVPDRFSGSGSGTDFTLKISRVEAEDVGVYYCVQDLQTSLTFGGGTKLEIKR
notes: It is a human IgG captured through Fc
Regarding B1, in experiment [1], the “fold higher binding affinity compared to MEDI8897” value was no less than 100 fold. In addition, in experiment [2], the “fold higher affinity compared to MEDI8897” value was no less than 10 fold. Also, in experiment [3], the “IC50 against RSV/A2, fold lower than palivizumab” value was 62 fold and the “neutralization potency for RSV/A/A2 strain, fold against 4F1-WT” value was determined as 3 times. Further, the “fold higher binding affinity compared to PVZ” value in experiment [4] is no less than 100 fold. The “fold higher affinity compared to PVZ” value in experiment [5] is no less than 10 fold.

Values taken from patent US20240409620A1 (CENTER FOR EXCELLENCE IN MOLECULAR CELL SCIENCE CHINESE …, published 2024).
